In patent publication US7208293:

Assays:
[1] = biological target: T1, BPTI(K15L)-III MA phage (bovine; phage M13); test: pH elution from HNE beads
T1 construct: Whole M13 phage (ampicillin resistance) displaying the variant on gene III protein; also called BPTI(K15L)-III phage
Protocol: Samples were mixed on a Labquake shaker for 3 hours. The beads were washed with 0.5 ml of TBS/BSA for 5 minutes and recovered by centrifugation. The supernatant was removed and the beads were washed 5 times with 0.5 ml of TBS/0.1% Tween-20. Finally, the beads were resuspended in 0.5 ml of elution buffer (0.1 M HCl containing 1.0 mg/ml BSA adjusted to pH 2.2 with glycine), mixed for 5 minutes and recovered by centrifugation. The supernatant fraction was removed, neutralized with 130 µl of 1 M Tris, pH 8.0, diluted in LB broth, and titered for plaque-forming units on a lawn of cells.

[2] = biological target: T2, BPTI(K15L,MGNG)-III MA phage (bovine; phage M13); test: phage eluted from HNE beads
T2 construct: also called BPTI3.CL; BPTI-IIIMK (K15L MGNG)
T2 sequence (chain, as listed by the source): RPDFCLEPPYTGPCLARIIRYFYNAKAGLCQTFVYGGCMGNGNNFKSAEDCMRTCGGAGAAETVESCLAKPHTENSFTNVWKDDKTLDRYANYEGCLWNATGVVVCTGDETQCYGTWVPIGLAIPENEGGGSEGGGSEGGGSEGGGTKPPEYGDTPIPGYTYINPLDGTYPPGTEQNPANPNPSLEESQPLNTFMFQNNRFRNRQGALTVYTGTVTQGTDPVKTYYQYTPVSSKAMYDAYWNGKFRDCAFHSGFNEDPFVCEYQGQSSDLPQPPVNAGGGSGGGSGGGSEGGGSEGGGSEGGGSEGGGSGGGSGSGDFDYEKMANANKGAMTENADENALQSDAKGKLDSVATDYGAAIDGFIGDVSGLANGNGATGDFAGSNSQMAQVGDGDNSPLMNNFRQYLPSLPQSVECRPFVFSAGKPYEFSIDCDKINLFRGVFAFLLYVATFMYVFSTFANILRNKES

B1: human neutrophil elastase (enzyme, UniProt P08246 30-247, looked up)
chain: IVGGRRARPHAWPFMVSLQLRGGHFCGATLIAPNFVMSAAHCVANVNVRAVRVVLGAHNLSRREPTRQVFAVQRIFENGYDPVNLLNDIVILQLNGSATINANVQVAQLPAQGRRLGNGVQCLAMGWGLLGRNRGIASVLQELNVTVVTSLCRRSNVCTLVRGRQAGVCFGDSGSPLVCNGLIHGIASFVRGGCASGLYPDAFAPVAQFVNWIDSIIQ
notes: also called HNE; HNE beads
B1: binds [1]; binds [2].
